The source of these data is patent publication US20260232732A1 (FUNDACI INSTITUT DE RECERCA CONTRA LA LEUC MIA JOSEP …, published 2026).

One experiment addresses T1, naked peptide IPNMADDYGS (human).
T1 peptide: IPNMADDYGS
Kind of experiment: ELISA, naked peptide.

For another experiment, the target named is T2, naked peptide MADDYGSEST (human).
T2 peptide: MADDYGSEST
Kind of experiment: ELISA, naked peptide. (An ELISA detects its analyte on a solid surface through an enzyme-linked reagent.)

For another experiment, the target named is T3, naked peptide SESTSSMEDY (human).
T3 peptide: SESTSSMEDY
The experiment in a line: ELISA, naked peptide.

A further experiment deals with T4, naked peptide SSMEDYVNFN (human).
T4 peptide: SSMEDYVNFN
Kind of experiment: ELISA, naked peptide.

A further experiment concerns the target T5, naked peptide SMEDYVNFNF (human).
T5 peptide: SMEDYVNFNF
The experiment in a line: ELISA, naked peptide.

In experiment [1] the target is T6, Pep1-48, N-terminal domain 1 of CCR9, amino acids 1 to 48 (human).
T6 construct: Chemically synthesized (Genscript), purity >75%; also called CCR9 N-terminal 1-48 peptide
T6 peptide: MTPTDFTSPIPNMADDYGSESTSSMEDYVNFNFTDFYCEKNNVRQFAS
The experiment in a line: BLI, His-tagged scFv on NTA biosensor, Pep1-48 as analyte, 1:1 global fit; paragraph 309 says that Comp-1 does not bind, in agreement with the BLI results of Table 11. As for the experimental part: The affinity between the CCR9-N-terminal domain 1 of CCR9 and the different scFvs was determined by Bio-Layer Interferometry (BLI), a technique that allows quantitative and qualitative measurement of biomolecular interactions in real-time. Briefly, scFv were immobilized onto NTA Biosensor (Sartorius) and quantification was performed in an Octet RED384 (Sartorius). scFv were dissolved in PBS (150 mM NaCl, 38 mM Na2HPO4, 12 mM NaH2PO4, pH 7.2) and a buffer containing 0.03% Tween-20 in PBS, pH 7.2 was used for baseline steps.
In general terms: In BLI a coated tip is dipped into the sample, and binding shifts an interference pattern.

Experiment [2] has as its target T7, biotin-peptide TSSMEDYVNF (human).
T7 peptide: Biotin-TSSMEDYVNF
The experiment in a line: ELISA biotin-peptide; scFv 0.3125 ug/mL; repII. The method, then:
(§1) The peptides were synthesized naked or with a N-terminal Biotin modification with a purity of >98%. All four scFvs were verified by ELISA that can be detected with anti-His antibodies. ELISA was performed for scFv-peptide binding validation. Briefly, naked peptides were coated (50 μg/mL) in 0.58M carbonate-bicarbonate buffer pH9.5, 100 μL/well, 4° C. O/N. Then after blocking (3% BSA-PBS, 300 μL/well 37° C. 1.5 h) and washing (PBS+Tween-20 0.05% v/v (0.05% PBST), wells were incubated with each purified scFv antibody at concentration of 1 μg/mL in PBS at 37° C. 1 h. After washing (0.05% PBST), wells were incubated with secondary antibodies (goat anti-His IgG-HRP) in PBS, 37° C., 30 min. After washing, and incubation with TMB substrate, reactions were stopped with 2M HCl and reading was quantified at OD450.
(§2) ELISA with biotin-conjugated peptides (5 μg/mL) was performed very similar to described above with minor modifications.
(§3) A full curve ELISA was performed for each positive scFv/biotin-peptide pair in order to confirm previous results. Tables 15-17 show ELISA results of the dose-dependent full curve for each positive peptide with scFv “CCR9_HUM”, “Comp-2” and “Comp-3”, respectively.

Experiment [3] has as its target T8, biotin-peptide SSMEDYVNFN (human).
T8 peptide: Biotin-SSMEDYVNFN
The experiment in a line: ELISA biotin-peptide; scFv 0.3125 ug/mL; repII. The method, then:
as §1, §2, §3

Experiment [4] concerns the target T9, biotin-peptide SMEDYVNFNF (human).
T9 peptide: Biotin-SMEDYVNFNF
Kind of experiment: ELISA biotin-peptide; scFv 0.3125 ug/mL; repII. The method, then:
as §1, §2, §3

The target of experiment [5] is T10, biotin-peptide MEDYVNFNFT (human).
T10 peptide: Biotin-MEDYVNFNFT
The experiment in a line: ELISA biotin-peptide; scFv 0.3125 ug/mL; repII. As for the experimental part:
as §1, §2, §3

Experiment [6] concerns the target T11, Peptide 3-BSA (SSMEDYVNFN-C conjugated to BSA) (human).
T11 peptide: SSMEDYVNFNC(BSA)
Kind of experiment: ELISA; Ab 0.01563 ug/mL; repII. As for the experimental part: (§4) In brief, plates with each non-conjugated peptide (50 μg/mL) or BSA-conjugated peptide (5 μg/mL) were coated in 0.58M carbonate-bicarbonate buffer pH9.5, 100 μL/well, at 4° C. […] After washing, wells were incubated with the 3, 3′,5,5′-Tetramethylbenzidine (TMB) HRP substrate and reactions were stopped with 2M HCl and OD450 was recorded.

For experiment [7], the target named is T12, Peptide 4-BSA (SMEDYVNFNF-C conjugated to BSA) (human).
T12 peptide: SMEDYVNFNFC(BSA)
The experiment in a line: ELISA; Ab 0.01563 ug/mL; repII. The method, then:
as §4

The target in experiment [8] is T13, Peptide 1, non-conjugated (MADDYGSEST-C) (human).
T13 construct: With the extra C-terminal Cys
T13 peptide: MADDYGSESTC
Kind of experiment: ELISA; Ab 0.01563 ug/mL; repII. The method, then: as §4

Experiment [9] concerns the target T14, Peptide 2, non-conjugated (GSESTSSMED-C) (human).
T14 construct: With the extra C-terminal Cys
T14 peptide: GSESTSSMEDC
Kind of experiment: ELISA; Ab 0.01563 ug/mL; repII. The method, then: as §4

Experiment [10] has as its target T15, Peptide 3, non-conjugated (SSMEDYVNFN-C) (human).
T15 construct: With the extra C-terminal Cys
T15 peptide: SSMEDYVNFNC
The experiment in a line: ELISA; Ab 0.01563 ug/mL; repII. The method, then: as §4

Experiment [11] has as its target T16, Peptide 4, non-conjugated (SMEDYVNFNF-C) (human).
T16 construct: With the extra C-terminal Cys
T16 peptide: SMEDYVNFNFC
The experiment in a line: ELISA; Ab 0.01563 ug/mL; repII. As for the experimental part:
as §4

Experiment [12] has as its target T17, BSA (negative control coating) (bovine, UniProt P02769 25-607).
T17 construct: also called Negative control BSA
The experiment in a line: ELISA; Ab 0.01563 ug/mL; repII. As for the experimental part: as §4

Experiment [13] has as its target T18, antigen peptide-BSA (immunisation peptide #1 MADDYGSESTSSMEDYVNFNF-C conjugated to BSA) (human, extra C-terminal Cys conjugated to BSA).
T18 construct: also called Positive control antigen peptide-BSA; MADDY peptide
T18 peptide: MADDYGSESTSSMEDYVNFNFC
Kind of experiment: ELISA; Ab 0.01563 ug/mL; repII. As for the experimental part: as §4

In experiment [14] the target is T19, Peptide 1-BSA (MADDYGSEST-C conjugated to BSA) (human).
T19 peptide: MADDYGSESTC(BSA)
The experiment in a line: ELISA; Ab 0.01563 ug/mL; repII. As for the experimental part:
as §4

The target in experiment [15] is T20, Peptide 2-BSA (GSESTSSMED-C conjugated to BSA) (human).
T20 peptide: GSESTSSMEDC(BSA)
Kind of experiment: ELISA; Ab 0.01563 ug/mL; repII. The method, then: as §4

In experiment [16] the target is T11, Peptide 3-BSA (SSMEDYVNFN-C conjugated …). The experiment in a line: ELISA; Ab 0.03125 ug/mL; repII. The method, then: as §4
Experiment [17] concerns the target T13, Peptide 1, non-conjugated (MADDYGSEST-C). The experiment in a line: ELISA; Ab 0.03125 ug/mL; repII. As for the experimental part:
as §4

Where no end group is shown, it is not given here. The star is where a group is joined. Biotin = O=C1N[C@H]2[C@H](CS[C@H]2CCCCC(=O)*)N1

T17 sequence (P02769 25-607 limits assumed): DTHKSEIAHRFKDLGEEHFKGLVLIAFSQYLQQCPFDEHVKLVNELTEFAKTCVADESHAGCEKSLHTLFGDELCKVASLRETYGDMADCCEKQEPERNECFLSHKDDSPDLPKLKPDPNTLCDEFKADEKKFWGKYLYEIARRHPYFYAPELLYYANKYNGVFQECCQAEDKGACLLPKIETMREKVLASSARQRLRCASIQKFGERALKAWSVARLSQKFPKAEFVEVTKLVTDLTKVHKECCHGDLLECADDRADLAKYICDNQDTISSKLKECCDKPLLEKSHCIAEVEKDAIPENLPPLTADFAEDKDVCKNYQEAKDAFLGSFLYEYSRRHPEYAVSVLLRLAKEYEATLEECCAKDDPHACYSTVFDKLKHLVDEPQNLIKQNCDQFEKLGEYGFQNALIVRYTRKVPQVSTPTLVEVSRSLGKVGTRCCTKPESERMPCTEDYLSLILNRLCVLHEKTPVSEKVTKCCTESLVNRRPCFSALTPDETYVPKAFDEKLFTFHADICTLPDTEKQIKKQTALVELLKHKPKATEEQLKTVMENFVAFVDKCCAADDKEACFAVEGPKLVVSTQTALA

B1: Comparative antibody 1 (Comp-1) scFv, SEQ ID NO: 10 from WO2023/037125 A1, His-tagged (scFv)
scFv: QVQLKESGPGLVQPSQTLSLTCTVSGFSVASYDMHWVRLPPGKGLEWMGIIWANGNTHYNSGLKSRLSISRDTSKSQVFLKMNSLQTEDTAIYFCTRGGFAYWGQGTLVTVSSGGGGSGGGGSGGGGSGGGGSDVVMTQTPVSLSVSLGGQVSISCRSSQSLVHNNGNTYLSWYLQKPGQSPQLLIYKVSNRFSGVSDRFSGSGSGTDFTLKISRVEPDDLGVYYCGQGTQYPTFGGGTKLELKHHHHHH
Regarding B1, the binding result with naked peptide IPNMADDYGS was “no binding (tested: 1 ug/mL)”; with naked peptide MADDYGSEST, “no binding (tested: 1 ug/mL)”; in the experiment with naked peptide SESTSSMEDY, “no binding (tested: 1 ug/mL)”; in the experiment with naked peptide SSMEDYVNFN, “no binding (tested: 1 ug/mL)”; with naked peptide SMEDYVNFNF, “no binding (tested: 1 ug/mL)”; in experiment [1], “no binding”.

B2: CCR9_HUM2 scFv (humanized anti-CCR9 scFv, SEQ ID NO: 17 with C-terminal 6xHis tag) (scFv)
scFv: QVQLVQSGAEVKKPGASVKVSCTASGYSFTDYIIYWVKQAHGQSLEWMGYIDPNNYNTRYSQKFQGKVTITVDKSSTSAYMELNSLTSDDTAVYYCARDVYWGQGTTVTVSSGGGGSGGGGSGGGGSGGGGSDVVMTQTPLSLSVTPGQPASISCRSSQSLVHSNGKTYLQWYLQKPGQSPKLLIYKVSNRFSGVPDRFSGSGSGTDFTLKISRVEAEDVGVYFCAQSTHVWTFGGGTKVEIKRAHHHHHH
For B2, the OD450 in experiment [2] came out at 0.45 OD; in experiment [3] it was 1.73 OD; in experiment [4], 1.65 OD; in experiment [5], 1.35 OD.

B3: anti-CCR9 antibody clone 115 (murine, from hybridoma #115) (antibody, V domains shown)
VH: QVQLKQSGPELVKPGTSVRVSCTASGYSFTDYIIYWVKQSHGRSLEWIGYIDPNNYNTRYSQKFKGKATLTVDKSSTSAFMHLNSLTSDDSAVYYCARDVYWGQGTTLTVSS
VL: DVVMTQTPLSLTVSLGDQASISCRSSQSLVHSNGKTYLQWYLQKPGQSPKLLIYKVSNRFSGVPDRFSGSGSGTDFTLKISRVEAEDLGVYFCAQSTHVWTFGGGTKLEIKR
notes: Mouse IgG1
Take B3: the OD450 turned out to be 1.34 OD in [6]; 1.03 OD in experiment [7]; 0.01 OD in experiment [8]; 0.01 OD in experiment [9]; 1.4 OD in experiment [10]; 0.46 OD in experiment [11]. Also, the OD450 in [12] is 0.01 OD; in experiment [13], 1.21 OD; in [14] it was 0.01 OD; in experiment [15], 0.01 OD; in experiment [16] it was 1.57 OD; in experiment [17], 0.01 OD.
